Data reported in patent US20250002543A1.
Numbering of substitutions follows the chain as printed. Names may count otherwise. Each block holds one binder with its values, some of them ahead of it.

Tests used:
[1] = biological target: human PCSK9 antibody containing human κ light chain subgroup 4 (Vκ4) (manufactured by R&D Systems); assay: ELISA; antibody immobilised (10 ug/mL), binding protein at 50 ug/mL, Anti-6-His detection, blank-subtracted
[2] = biological target: Herceptin containing human κ light chain subgroup 1 (Vκ1) (manufactured by Chugai Pharmaceutical Co., Ltd.); assay: as above
[3] = biological target: human CTLA4 antibody containing human κ light chain subgroup 3 (Vκ3) (manufactured by R&D Systems); assay: as above
[4] = biological target: human PDGF R alpha antibody containing human κ light chain subgroup 3 (Vκ3) (manufactured by R&D Systems); assay: as above
[5] = biological target: immunoglobulin immobilized on IgG Sepharose 6 Fast Flow (manufactured by Cytiva); assay: IgG Sepharose 6 Fast Flow column; linear gradient 0.1 M citrate pH 6.5 to pH 2.2; pH at the peak of the eluted binding protein
[6] = biological target: human antibody (gamma globulin preparation, manufactured by The Chemo-Sero-Therapeutic Research Institute) (human); assay: ELISA; human gamma globulin immobilised, alkali-untreated protein extract, Anti-6-His detection
[7] = biological target: human antibody (gamma globulin preparation, manufactured by The Chemo-Sero-Therapeutic Research Institute) (human); assay: ELISA; human gamma globulin immobilised; acid treatment 50 mM buffer pH 3.2, 25 C, 5 min; elution rate = 1 - remaining binding activity
[8] = biological target: human antibody (gamma globulin preparation, manufactured by The Chemo-Sero-Therapeutic Research Institute) (human); assay: ELISA; human gamma globulin immobilised; acid treatment 50 mM buffer pH 3.0, 25 C, 15 min; elution rate = 1 - remaining binding activity
[9] = biological target: human antibody (gamma globulin preparation, manufactured by The Chemo-Sero-Therapeutic Research Institute) (human); assay: ELISA; human gamma globulin immobilised; acid treatment 50 mM buffer pH 3.2, 25 C, 5 min; elution rate = 1 - remaining binding activity; remark: listed apart in the source

B8: FpL_C3 G21R (designed binder)
chain: ETPEEPKEEVTIKVNLIFADRKIQTAEFKGTFEEATAKAYAYANLLAKENGEYTADLEDGGNTINIKFAGHHHHHH
Elution pH [5]: 3.4 pH

B9: FpL_C3 5c (designed binder)
chain: B8 chain with R21G, N44G, E49V, N50Y, E52V, N62Y
Antibody-binding activity (absorbance) (absorbance (450 nm)) [6]: 0.74

B10: FpL_C3 G51V (designed binder)
chain: B8 chain with R21G, G51V
Elution pH [5]: 3.4 pH

B11: FpL_C3 N62R (designed binder)
chain: B8 chain with R21G, N62R
Elution pH [5]: 3 pH

B12: FpL_C3 N62H (designed binder)
chain: B8 chain with R21G, N62H
Elution pH [5]: 3 pH

B13: FpL_C3 N62W (designed binder)
chain: B8 chain with R21G, N62W
Elution pH [5]: 3 pH

B14: FpL_C3 5d (designed binder)
chain: B8 chain with R21G, N44G, E49V, N50S, E52V, N62Y
Antibody-binding activity (absorbance) (absorbance (450 nm)) [6]: 0.46

B22: FpL_C3KX 3a (designed binder)
chain: ETPEEPAEEVTIRVNLIFADGQIQTAEFIGTFEEATARAYAYANLLAREYGGYTADLEDGGYTINIRFAGHHHHHH
Polyclonal antibody-binding activity (abs@450 nm) [1]: 0.76 abs@450 nm
Polyclonal antibody-binding activity (abs@450 nm) [2]: 0.87 abs@450 nm
Polyclonal antibody-binding activity (abs@450 nm) [3]: 0.21 abs@450 nm
Polyclonal antibody-binding activity (abs@450 nm) [4]: 0.12 abs@450 nm

B23: FpL_C3KX 7d_E33V (designed binder)
chain: B22 chain with E4G, P6S, Q22R, E33V, R38E, E49D, G52D, Y53F
Elution rate [%] [8]: 86%

B24: FpL_C3KX 7d_I23L (designed binder)
chain: B22 chain with E4G, P6S, Q22R, I23L, R38E, E49D, G52D, Y53F
Elution rate [%] [8]: 82%

B25: FpL_C3KX 7d_G21R (designed binder)
chain: B22 chain with E4G, P6S, G21R, Q22R, R38E, E49D, G52D, Y53F
Elution rate [%] [8]: 82%

B26: FpL_C3 2a (designed binder)
chain: B8 chain with R21G, N50Y, E52G
Antibody-binding activity (absorbance) (absorbance (450 nm)) [6]: 0.72

B27: FpL_C3KX 7d_E8R (designed binder)
chain: B22 chain with E4G, P6S, E8R, Q22R, R38E, E49D, G52D, Y53F
Elution rate [%] [8]: 82%

B32: FpL_C3KX 7d_I23F (designed binder)
chain: B22 chain with E4G, P6S, Q22R, I23F, R38E, E49D, G52D, Y53F
Elution rate [%] [8]: 81%

B34: FpL_C3 4f (designed binder)
chain: B8 chain with R21G, N44D, N50Y, E52V, N62Y
Antibody-binding activity (absorbance) (absorbance (450 nm)) [6]: 0.9

B37: FpL_C3KX 7d_E52Y (designed binder)
chain: B22 chain with E4G, P6S, Q22R, R38E, E49D, G52Y, Y53F
Elution rate [%] [8]: 85%

B38: FpL_C3KX 7d_K38L (designed binder)
chain: B22 chain with E4G, P6S, Q22R, R38L, E49D, G52D, Y53F
Elution rate [%] [8]: 88%

B41: FpL_C3KX 7d (designed binder)
chain: B22 chain with E4G, P6S, Q22R, R38E, E49D, G52D, Y53F
Elution rate [%] [8]: 78%

B42: FpL_C3KX 4h (designed binder)
chain: B22 chain with E49D
Polyclonal antibody-binding activity (abs@450 nm) [1]: 0.62 abs@450 nm
Polyclonal antibody-binding activity (abs@450 nm) [2]: 0.69 abs@450 nm
Polyclonal antibody-binding activity (abs@450 nm) [3]: 0.63 abs@450 nm
Polyclonal antibody-binding activity (abs@450 nm) [4]: 0.56 abs@450 nm

B44: FpL_C3KX 7d_K38H (designed binder)
chain: B22 chain with E4G, P6S, Q22R, R38H, E49D, G52D, Y53F
Elution rate [%] [8]: 86%

B45: FpL_C3 N62Y (designed binder)
chain: B8 chain with R21G, N62Y
Elution pH [5]: 3 pH

B46: FpL_C3KX 7d_K48H (designed binder)
chain: B22 chain with E4G, P6S, Q22R, R38E, R48H, E49D, G52D, Y53F
Elution rate [%] [8]: 85%

B47: FpL_C3KX 7d_E8G (designed binder)
chain: B22 chain with E4G, P6S, E8G, Q22R, R38E, E49D, G52D, Y53F
Elution rate [%] [8]: 80%

More lines, now with the values ahead:

Polyclonal antibody-binding activity (abs@450 nm) [1]: 0.55 abs@450 nm
Polyclonal antibody-binding activity (abs@450 nm) [2]: 0.65 abs@450 nm
Polyclonal antibody-binding activity (abs@450 nm) [3]: 0.66 abs@450 nm
Polyclonal antibody-binding activity (abs@450 nm) [4]: 0.59 abs@450 nm
Elution pH [5]: 2.8 pH
B1: FpL_C4KR (designed binder)
chain: ETPEEPREEVTIRVNLIFADGRTQTAEFRGTFEEATAEAYRYADLLARVNGEYTADLEDGGYTINIRFAGHHHHHH

Elution pH [5]: 3.2 pH
B2: FpL_C4KR amino acid substitution mutant Lys(Arg)29Pro (designed binder)
chain: B1 chain with R29P

Elution pH [5]: 3.1 pH
B3: FpL_C4KR amino acid substitution mutant Lys(Arg)13Val (designed binder)
chain: B1 chain with R13V

Elution pH [5]: 3 pH
B4: FpL_C4KR amino acid substitution mutant Lys(Arg)7Gln (designed binder)
chain: B1 chain with R7Q

Elution pH [5]: 3.2 pH
B5: FpL_C4KR amino acid substitution mutant Lys(Arg)22Thr (designed binder)
chain: B1 chain with R22T

Elution pH [5]: 3.1 pH
B6: FpL_C4KR amino acid substitution mutant Lys(Arg)29Val (designed binder)
chain: B1 chain with R29V

Elution pH [5]: 3.1 pH
B7: FpL_C4KR amino acid substitution mutant Lys(Arg)29Ile (designed binder)
chain: B1 chain with R29I

Elution rate [%] [7]: 70%
B15: FpL_C3KX 9a (designed binder)
chain: ETPGESAEEVTIRVNLIFADGRRQTAEFIGTFEEATAEAYAYARLLARDYGEFTADLEDGGYTINIRFVGHHHHHH

Elution rate [%] [7]: 63%
B16: FpL_C3KX 9d (designed binder)
chain: B15 chain with R23I, I64L

Elution rate [%] [7]: 68%
B17: FpL_C3KX 9b (designed binder)
chain: B15 chain with R44H

Elution rate [%] [7]: 69%
B18: FpL_C3KX 9c (designed binder)
chain: B15 chain with R44N, I64L

Elution rate [%] [7]: 68%
B19: FpL_C3KX 9e (designed binder)
chain: B15 chain with R23I, R44H, I64L

Elution rate [%] [7]: 75%
B20: FpL_C3KX 10a (designed binder)
chain: B15 chain with R48H, I64L

Elution rate [%] [7]: 67%
B21: FpL_C3KX 10b (designed binder)
chain: B15 chain with R44H, R48H, I64L

Elution rate [%] [8]: 82%
B28: FpL_C3KX 7d_P6A (designed binder)
chain: B15 chain with S6A, R23I, R44N, E52D, V69A

Elution rate [%] [7]: 46%
Elution rate [%] [9]: 26%
B29: FpL_C3KX 7e (designed binder)
chain: B15 chain with R23I, R44N

Elution rate [%] [9]: 29%
B30: FpL_C3KX 7e amino acid substitution mutant Glu34Val (designed binder)
chain: B15 chain with R23I, E34V, R44N

Elution rate [%] [9]: 64%
B31: FpL_C3KX 7e amino acid substitution mutant Glu34Phe (designed binder)
chain: B15 chain with R23I, E34F, R44N

Elution rate [%] [8]: 82%
B33: FpL_C3KX 7d_N44R (designed binder)
chain: B15 chain with R23I, E52D, V69A

Elution rate [%] [8]: 82%
B35: FpL_C3KX 7d_N44H (designed binder)
chain: B15 chain with R23I, R44H, E52D, V69A

Elution rate [%] [9]: 46%
B36: FpL_C3KX 7e amino acid substitution mutant Glu34Asp (designed binder)
chain: B15 chain with R23I, E34D, R44N

Elution rate [%] [8]: 86%
B39: FpL_C3KX 7d_N50M (designed binder)
chain: B15 chain with R23I, R44N, Y50M, E52D, V69A

Elution rate [%] [9]: 51%
B40: FpL_C3KX 7e amino acid substitution mutant Glu34Leu (designed binder)
chain: B15 chain with R23I, E34L, R44N

Elution rate [%] [9]: 29%
B43: FpL_C3KX 7e amino acid substitution mutant Asn15Val (designed binder)
chain: B15 chain with N15V, R23I, R44N

Elution rate [%] [8]: 83%
B48: FpL_C3KX 7d_Y53S (designed binder)
chain: B15 chain with R23I, R44N, E52D, F53S, V69A
